Reference: patent publication US5210024A, “Isolation of strains of Saccharomyces cerevisiae having altered α-acetyltransferase activity” (priority 1991, dated 1993)
Ends that are not written are not given here.

How the values were obtained:
[1] = biological target: T1, N^α -AT (AAA1 N^α -acetyltransferase) (Saccharomyces cerevisiae, UniProt P07347+P12945); experiment: N^α-acetylation of synthetic peptides by AAA1 N^α-acetyltransferase ([3H]acetyl coenzyme A incorporation); type: biochemical; design: concentration or dose not given beside the values
T1 construct: isolates N^α -acetyltransferase by treating yeast cells with lyticase; endogenous in cells; host or cells: Saccharomyces cerevisiae cells (native enzyme)
T1 sequence (P12945 2-854): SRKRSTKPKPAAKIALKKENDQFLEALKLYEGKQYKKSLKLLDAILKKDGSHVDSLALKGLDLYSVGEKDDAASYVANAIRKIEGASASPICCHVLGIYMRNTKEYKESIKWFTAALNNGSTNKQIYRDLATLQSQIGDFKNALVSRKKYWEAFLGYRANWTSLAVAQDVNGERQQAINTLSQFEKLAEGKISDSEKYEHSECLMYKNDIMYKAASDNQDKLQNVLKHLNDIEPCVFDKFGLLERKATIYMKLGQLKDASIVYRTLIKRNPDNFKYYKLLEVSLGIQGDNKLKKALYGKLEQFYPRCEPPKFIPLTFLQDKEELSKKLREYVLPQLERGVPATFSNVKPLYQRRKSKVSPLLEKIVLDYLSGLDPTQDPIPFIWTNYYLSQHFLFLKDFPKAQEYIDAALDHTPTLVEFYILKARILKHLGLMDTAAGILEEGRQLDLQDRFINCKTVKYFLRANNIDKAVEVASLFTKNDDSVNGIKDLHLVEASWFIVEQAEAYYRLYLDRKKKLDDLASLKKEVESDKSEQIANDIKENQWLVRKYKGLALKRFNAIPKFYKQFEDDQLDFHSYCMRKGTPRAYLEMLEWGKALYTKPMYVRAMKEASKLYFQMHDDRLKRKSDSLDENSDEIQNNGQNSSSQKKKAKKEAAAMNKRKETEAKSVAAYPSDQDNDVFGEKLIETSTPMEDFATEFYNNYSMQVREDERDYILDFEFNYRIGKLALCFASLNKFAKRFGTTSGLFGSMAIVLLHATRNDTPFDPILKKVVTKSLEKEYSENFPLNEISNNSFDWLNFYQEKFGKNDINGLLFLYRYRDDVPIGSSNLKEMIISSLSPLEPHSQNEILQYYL
T1 sequence (P07347 1-238): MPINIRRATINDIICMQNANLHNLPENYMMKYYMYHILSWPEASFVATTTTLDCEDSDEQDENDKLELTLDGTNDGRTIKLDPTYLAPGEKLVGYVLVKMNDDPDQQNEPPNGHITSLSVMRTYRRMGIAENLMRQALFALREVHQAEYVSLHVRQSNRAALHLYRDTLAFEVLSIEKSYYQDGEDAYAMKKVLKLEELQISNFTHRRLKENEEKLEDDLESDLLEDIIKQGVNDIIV
Method: (§1) Aliquots of the lysate were added to 1.5 ml Eppendorf tubes containing a reaction mixture of 50 mM HEPES, pH 7.4, 150 mM KCl, 1 mM DTT, 25 μM[^3 H]acetyl coenzyme A (0.5 μCi) and 50 μM ACTH (1-24) with an adjusted final volume of 100 μl. The assay mixture was incubated at 30 C for 30 min. The reaction was stopped by adding 0.5 M acetic acid and chilled in an ice bath. […] The radioactivity in the control represented acetylation of endogenous compounds is subtracted from each sample determination. One unit of activity is defined as 1 pmol of acetyl residues incorporated into ACTH (1-24) under standard assay conditions.
(§2) This second N^α -acetyltransferase is a methionine N^α -acetyltransferase activity, and is designated as "M-N^α -AT." This second N^α -acetyltransferase is the subject of U.S. patent application of John A. Smith and Fang-Jen S. Lee, filed Oct. […] In order to compare the relative specificity and activity of the AAA1 N^α -acetyltransferase ("N^α -AT") of the present invention with the methionine N^α -acetyltransferase activity (M-N^α -AT) of U.S. patent application of John A. Smith and Fang-Jen S. Lee, filed Oct. […] These peptides were assessed for their ability to serve as substrates for the two enzymes. In Table 2, the effect of the amino terminal amino acid on activity is investigated; in Table 3, the effect of the penultimate amino terminal amino acid on activity is investigated.

[2] = biological target: T2, M-N^α -AT (methionine N^α -acetyltransferase) (Saccharomyces cerevisiae, UniProt Q06504); experiment: N^α-acetylation of synthetic peptides by methionine N^α-acetyltransferase; type: biochemical; design: concentration or dose not given beside the values
T2 construct: endogenous in cells; host or cells: Saccharomyces cerevisiae aaa1 (AAA1-null) mutant
T2 sequence (Q06504 1-195): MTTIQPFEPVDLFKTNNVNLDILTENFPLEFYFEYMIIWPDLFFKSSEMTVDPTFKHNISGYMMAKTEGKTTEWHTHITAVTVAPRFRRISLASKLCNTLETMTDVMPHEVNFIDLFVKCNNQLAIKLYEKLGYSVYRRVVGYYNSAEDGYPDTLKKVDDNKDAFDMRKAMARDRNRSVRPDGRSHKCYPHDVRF
T2 sequence (Q12387 2-796 partner limits assumed): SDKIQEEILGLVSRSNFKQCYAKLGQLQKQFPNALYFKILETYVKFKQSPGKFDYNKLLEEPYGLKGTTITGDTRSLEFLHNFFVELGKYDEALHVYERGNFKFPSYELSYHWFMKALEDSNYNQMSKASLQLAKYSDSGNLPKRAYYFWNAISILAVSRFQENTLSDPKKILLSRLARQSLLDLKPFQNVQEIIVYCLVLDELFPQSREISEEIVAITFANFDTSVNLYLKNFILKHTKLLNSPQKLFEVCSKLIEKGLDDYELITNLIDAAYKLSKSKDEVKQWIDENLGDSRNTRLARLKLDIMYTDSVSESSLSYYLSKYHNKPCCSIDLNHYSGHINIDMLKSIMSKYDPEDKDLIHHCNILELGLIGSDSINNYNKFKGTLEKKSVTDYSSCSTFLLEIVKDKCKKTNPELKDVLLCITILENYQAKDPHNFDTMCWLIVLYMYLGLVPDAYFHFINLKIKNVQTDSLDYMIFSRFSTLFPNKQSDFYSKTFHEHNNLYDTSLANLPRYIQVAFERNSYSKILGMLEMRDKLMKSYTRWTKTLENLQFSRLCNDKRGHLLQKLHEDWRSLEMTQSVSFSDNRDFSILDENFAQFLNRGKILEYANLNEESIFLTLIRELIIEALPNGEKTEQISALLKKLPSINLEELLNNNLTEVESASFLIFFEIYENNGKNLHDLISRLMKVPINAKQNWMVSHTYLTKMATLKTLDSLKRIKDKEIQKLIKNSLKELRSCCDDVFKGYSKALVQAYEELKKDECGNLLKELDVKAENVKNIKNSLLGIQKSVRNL
Method: as §1, §2

[3] = Table 2: relative activity for N^α-acetylation of synthetic peptide substrate, influence of the amino terminal residue
[4] = Table 3: relative activity for N^α-acetylation of synthetic peptide substrate, influence of the penultimate amino terminal residue

Row | Substance | Activity (%) (mean activity ± S.D.) N^α -AT [1, 3] | Activity (%) (mean activity ± S.D.) M-N^α -AT [2, 3] | Activity (%) (mean activity ± S.D.) N^α -AT [1, 4] | Activity (%) (mean activity ± S.D.) M-N^α -AT [2, 4]
1 | TIPETQKGVIFYESHGKLEYKDIP (TIPETQKGVIFYESHGKLEYKDIP) | 103 ± 5% | 0% |  | 
2 | VIPETQKGVIFYESHGKLEYKDIP (VIPETQKGVIFYESHGKLEYKDIP) | 69 ± 4% | 0% |  | 
3 | DIPETQKGVIFYESHGKLEYKDIP (DIPETQKGVIFYESHGKLEYKDIP) | 0% | 0% |  | 
4 | SDPETQKGVIFYESHGKLEYKDIP (SDPETQKGVIFYESHGKLEYKDIP) |  |  | 171 ± 9% | 0%
5 | STPETQKGVIFYESHGKLEYKDIP (STPETQKGVIFYESHGKLEYKDIP) |  |  | 144 ± 8% | 0%
6 | FIPETQKGVIFYESHGKLEYKDIP (FIPETQKGVIFYESHGKLEYKDIP) | 9 ± 2% | 0% |  | 
7 | QIPETQKGVIFYESHGKLEYKDIP (QIPETQKGVIFYESHGKLEYKDIP) | 0% | 0% |  | 
8 | SNPETQKGVIFYESHGKLEYKDIP (SNPETQKGVIFYESHGKLEYKDIP) |  |  | 116 ± 5% | 0%
9 | NIPETQKGVIFYESHGKLEYKDIP (NIPETQKGVIFYESHGKLEYKDIP) | 0% | 0% |  | 
10 | SKPETQKGVIFYESHGKLEYKDIP (SKPETQKGVIFYESHGKLEYKDIP) |  |  | 151 ± 6% | 0%
11 | SVPETQKGVIFYESHGKLEYKDIP (SVPETQKGVIFYESHGKLEYKDIP) |  |  | 123 ± 7% | 0%
12 | GIPETQKGVIFYESHGKLEYKDIP (GIPETQKGVIFYESHGKLEYKDIP) | 23 ± 3% | 0% |  | 
13 | IIPETQKGVIFYESHGKLEYKDIP (IIPETQKGVIFYESHGKLEYKDIP) | 0% | 0% |  | 
14 | AIPETQKGVIFYESHGKLEYKDIP (AIPETQKGVIFYESHGKLEYKDIP) | 0% | 0% |  | 
15 | SRPETQKGVIFYESHGKLEYKDIP (SRPETQKGVIFYESHGKLEYKDIP) |  |  | 102 ± 5% | 0%
16 | SCPETQKGVIFYESHGKLEYKDIP (SCPETQKGVIFYESHGKLEYKDIP) |  |  | 136 ± 7% | 0%
17 | WIPETQKGVIFYESHGKLEYKDIP (WIPETQKGVIFYESHGKLEYKDIP) | 0% | 0% |  | 
18 | YIPETQKGVIFYESHGKLEYKDIP (YIPETQKGVIFYESHGKLEYKDIP) | 20 ± 2% | 0% |  | 
19 | SAPETQKGVIFYESHGKLEYKDIP (SAPETQKGVIFYESHGKLEYKDIP) |  |  | 168 ± 8% | 0%
20 | SHPETQKGVIFYESHGKLEYKDIP (SHPETQKGVIFYESHGKLEYKDIP) |  |  | 125 ± 6% | 0%
21 | SEPETQKGVIFYESHGKLEYKDIP (SEPETQKGVIFYESHGKLEYKDIP) |  |  | 121 ± 6% | 0%
22 | HIPETQKGVIFYESHGKLEYKDIP (HIPETQKGVIFYESHGKLEYKDIP; also: tritium label) | 19 ± 2% | 0% |  | 
23 | CIPETQKGVIFYESHGKLEYKDIP (CIPETQKGVIFYESHGKLEYKDIP) | 0% | 0% |  | 
24 | SYPETQKGVIFYESHGKLEYKDIP (SYPETQKGVIFYESHGKLEYKDIP) |  |  | 169 ± 8% | 0%
25 | SFPETQKGVIFYESHGKLEYKDIP (SFPETQKGVIFYESHGKLEYKDIP) |  |  | 118 ± 6% | 0%
26 | MIPETQKGVIFYESHGKLEYKDIP (MIPETQKGVIFYESHGKLEYKDIP) | 15 ± 2% | 0% |  | 
27 | KIPETQKGVIFYESHGKLEYKDIP (KIPETQKGVIFYESHGKLEYKDIP) | 0% | 0% |  | 
28 | SLPETQKGVIFYESHGKLEYKDIP (SLPETQKGVIFYESHGKLEYKDIP) |  |  | 126 ± 5% | 0%
